Experimental data from patent publication US8715697B2, “Genes associated with Leishmania parasite virulence” (priority 2001, dated 2014).

What was measured:
mononuclear cells = assay: In vitro proliferation of mononuclear cells from individuals of a ZCL region, tritiated thymidine incorporation; assay type: cell-based, human; conditions: 5 μg/ml LmPDI, 5 days of culture, immune individuals (positive SLA test); FIG. 8
Method: The lymphomonocytary cells were recovered, washed by 3 successive centrifuge runs with RPMI-PS/Glu medium (30 ml then twice 10 ml) then counted and incubated at a concentration of 10^6 cells/ml of medium in the presence or absence of a concentration of 5 μg/ml of LmPDI. After 5 days of culture, lymphocyte stimulation was estimated by incorporating tritiated thymidine. The result is expressed in CPM.
L. major LmPDI, because of its high expression during the infectious stage of the parasite, could be a target for a cellular immune response. In order to verify the pertinence of this hypothesis, the capacity of LmPDI to induce a cellular immune response was evaluated by means of experiments on the proliferation of mononuclear cells obtained from individuals having active lesions or ZCL antecedents.
This study was carried out in 37 individuals living at El Guettar (southern Tunisia) for whom the results of the cellular proliferation test against total antigens from the parasite (SLA, a test indicating prior contact with the parasite) was available. These individuals were divided up as follows:
Mononuclear cells comprising lymphocytes and monocytes were separated from peripheral blood by centrifuging on a Ficoll/Hypaque gradient (Pharmacia, Uppsala, Sweden).

scrambled RNase A = assay: Reactivation of scrambled RNase A in the presence of recombinant LmPDI protein (PDI activity); assay type: biochemical; conditions: 1.4 μM recombinant LmPDI, 30 minutes at 25° C., compared with bovine PDI; FIG. 4
Method: Scrambled RNase A (8 μM) was incubated in a buffer containing 4.5 mM (cCMP), 1 mM glutathione GSH, 0.2 mM glutathione disulfide GSSH, 2 mM EDTA and 100 mM Tris-HCl pH 8 in the presence of bovine serum albumin (BSA) (1.4 μM) as a negative control, bovine protein disulfide-isomerase (1.4 μM) as the positive control, or recombinant LmPDI (1.4 μM) for 30 minutes at 25° C. RNase A reactivation was determined by measuring the RNase A activity at 296 nm every 5 minutes for 30 minutes (Lyles and Gilbert, 1991).
20 mg of purified ribonuclease (RNase A) was scrambled at ambient temperature for 18 hours in a buffer containing 0.15 M of DTT, 6 M of guanidine-HCl and 0.1 M of Tris-HCl at a pH of 8.6 before being purified on a Sephadex G-25 column equilibrated in 0.01 M HCl. The concentration of scrambled RNase A fractions was determined using an extinction coefficient of 9200 M^−1 cm^−1 at 275 nm. Thu fractions were stored at −80° C. for two weeks.
Scrambled RNase A (8 μM) was incubated in a buffer containing 4.5 mM cCMP, 1 mM glutathione GSH, 0.2 mM glutathione disulfide GSSH, 2 mM EDTA and 100 mM of Tris-HCl pH 8 in the presence of bovine serum albumin (BSA) (1.4 μM) as a negative control, bovine protein disulfide-isomerase (1.4 μM) as a positive control, or recombinant LmPDI (1.4 μM) for 30 minutes at 25° C. […]

mononuclear cells (PBMC) = assay: Cytokines (IFN-β, IL-4) in PBMC culture supernatants, ELISA; assay type: cell-based, human; conditions: 5 μg/ml LmPDI, 48 hours, small sample of individuals
Method: Cytokines (IFN-β, IL-4) in PBMC culture supernatants were induced by incubating mononuclear cells for 48 hours with the same concentration of LmPDI and assaying by means of an ELISA test using human anti-IL-4 and anti-IFN-β monoclonal antibodies (Pharmingen, San Diego, Calif.).

B1: LmPDI: recombinant protein disulfide isomerase of Leishmania major, SEQ ID No: 3, produced in E. coli; vaccine candidate (protein)
chain: MAEVQVATKDNFDKVVIGDLTLVKFYAPWCGHCKTLAPEFVKAADMLAGIATLAEVDCTKEESLAEKYEIKGFPTLYIFRNGEKVKIYDGPRTAAGIASYMKAHVGPSMKAISTAEELEELKKETFPVCVVKTASTDSEMASMITKVADSLRSQMNFVLVTDAAISPNDAMESVTVYRKNAEREAYTGATPMTAESVKSFLTSAVLDYFGELGQESFQKYMEANKDKPLGWVFIDKNTDSALKGSLVAVAEKYRSQVLLTYIDGDQYRPVSRQLGIPEDAKFPAFVVDFERRHHVMGTDTPVTSESVAAFVEKYVKGETKQTVMSDAIPAKETVNGLTTVVGQTFAKYTDGTQNVMLLFYAPWCGHCKKLHPVYDKVAKSFESENVIIAKMDATTNDFDREKFEVSGFPTIYFIPAGKPPIVYEGGRTADEIQVFVKSHLTASAAPSGGPSGNSEEEDLLEHHHHHH
modifications: His6 tag
notes: vaccine candidate
proliferation of mononuclear cells (mononuclear cells): significant proliferation
restoration of RNase A activity (scrambled RNase A): capable of restoring RNase A activity
IFN-β in the supernatant from stimulated cells (mononuclear cells (PBMC)): significant amounts
IL-4 in the supernatant from stimulated cells (mononuclear cells (PBMC)): absence
